From patent US20200140561A1 (BLUEFIN BIOMEDICINE, published 2020) come the findings set out here.

Common to all, as to assay: cell-based or functional assay
Experiment [1] has as its target T1, human IL1RAP (human, UniProt Q9NPH3 21-570).
T1 sequence: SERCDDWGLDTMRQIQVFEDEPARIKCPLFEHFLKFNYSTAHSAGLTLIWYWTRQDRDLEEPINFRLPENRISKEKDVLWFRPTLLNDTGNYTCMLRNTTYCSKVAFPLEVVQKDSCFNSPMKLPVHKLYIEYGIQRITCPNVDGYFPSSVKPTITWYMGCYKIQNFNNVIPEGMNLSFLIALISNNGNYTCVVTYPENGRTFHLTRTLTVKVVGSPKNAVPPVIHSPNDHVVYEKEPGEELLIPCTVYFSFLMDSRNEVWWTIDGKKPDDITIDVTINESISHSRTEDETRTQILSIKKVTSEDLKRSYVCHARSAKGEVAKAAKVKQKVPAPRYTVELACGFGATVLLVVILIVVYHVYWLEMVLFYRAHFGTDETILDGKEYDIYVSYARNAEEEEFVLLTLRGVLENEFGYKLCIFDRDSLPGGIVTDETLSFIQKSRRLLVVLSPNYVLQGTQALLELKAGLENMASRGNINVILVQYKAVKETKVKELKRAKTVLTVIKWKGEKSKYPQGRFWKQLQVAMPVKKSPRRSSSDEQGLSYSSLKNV

The target in experiment [2] is T1, human IL1RAP. The source holds these as a separate data set.
For experiment [3], the target named is T1, human IL1RAP. The source holds these as a separate data set.
Experiment [4] has as its target T1, human IL1RAP. This is another data set of the same source.

B1: 36A10_21B6 (antibody, V domains shown)
VH: QGQVVESGGGVVQPGRSLRLSCAASGFTFSSYTLHWVRQAPGKGLEWVAVIWYDGSNKYYVDSVKGRFTISRDNSKNTLYLQMNSLRAEDTAVYYCAREYGSGSYYNVYYGMDVWGQGTTVTLSS
VL: DIVMTQSPLSLPVTPGEPASISCRSSQSLLHSNGYNYLDWYLQKPGQSPHLLIYLASNRASGVPDRFSGSGSGTDFTLKISRVEAEDVGFYYCMQTLQIPLTFGGGTKVEIK
In the case of B1, in the experiment with human IL1RAP [1], the “EC50 (inhibition of IL-1beta signalling, HEK-Blue IL-1beta reporter cells, 0.5 ng/ml IL-1beta, Abs. 620 nM)” value came out at 0.29 nM. Moreover, in the experiment with human IL1RAP [2], the “EC50 (inhibition of IL-1alpha signalling, HEK-Blue IL-1beta reporter cells, 0.5 ng/ml IL-1a, Abs. 620 nM)” value turned out to be 0.66 nM. In addition, the “EC50 (inhibition of IL-33 signalling, HEK-Blue IL-33 reporter cells, 0.5 ng/ml IL-33, Abs. 620 nm; partial)” value with human IL1RAP [3] came out at 1.76 nM.

B2: 37E10_15B5 (antibody, V domains shown)
VH: QVQLVESGGGVVQPGRSLRLSCAASGFTFRSHGMHWVRQAPGKGLEWVAVIWYDGSSEYYADSVKGRFTISRDNSKNTLYLQMNSLRAEDTAVYYCARENVYGSGWFFDYWGQGTLVTVSS
VL: EIVMTQSPATLSVSPGERASLSCRASQSVGSNLAWYQQRPGQAPRLLIFGASTRATGIPARFSGSRSGTEFTLTISSLQSEDFALYYCQQYNNWPPWTFGQGTKLEIK
Turning to B2, in the experiment with human IL1RAP [4], the “EC50 against IL-1α (IL-1 signaling reporter cell assay)” value is under 1 nM and the “EC50 against IL-1β (IL-1 signaling reporter cell assay)” value is under 1 nM. The “EC50 (inhibition of IL-1beta signalling, HEK-Blue IL-1beta reporter cells, 0.5 ng/ml IL-1beta, Abs. 620 nM)” value with human IL1RAP [1] was 0.15 nM. Moreover, in the experiment with human IL1RAP [2], the “EC50 (inhibition of IL-1alpha signalling, HEK-Blue IL-1beta reporter cells, 0.5 ng/ml IL-1a, Abs. 620 nM)” value was 0.19 nM. Also, in the experiment with human IL1RAP [3], the “EC50 (inhibition of IL-33 signalling, HEK-Blue IL-33 reporter cells, 0.5 ng/ml IL-33, Abs. 620 nm; partial, lower plateau about 0.4)” value amounted to 0.32 nM.

B3: 44E5_15C5 (antibody, V domains shown)
VH: QVQLVESGGGVVQPGRSLRLSCAASGFTFRSHGMHWVRQAPGKGLEWVAVIWYDGSSDYYADSVKGRFTISRDNSKNTLFLQMNSLSAEDTAVYYCARENVYGSGWFFDYWGQGTLVTVSS
VL: EIVMTQSPATLSVSPGERASLSCRASQSVGSNLAWYQQKPGQAPRLLIFGASTRATGIPARFSGSRSGTEFTLTISSLQSEDFALYYCQQYNNWPPWTFGQGTKLEIK
On to B3, for which, in the experiment with human IL1RAP [4], the “EC50 against IL-1α (IL-1 signaling reporter cell assay)” value is under 1 nM and the “EC50 against IL-1β (IL-1 signaling reporter cell assay)” value was under 1 nM. For the same molecule, the “EC50 (inhibition of IL-1beta signalling, HEK-Blue IL-1beta reporter cells, 0.5 ng/ml IL-1beta, Abs. 620 nM)” value with human IL1RAP [1] turned out to be 0.17 nM. Besides, the “EC50 (inhibition of IL-1alpha signalling, HEK-Blue IL-1beta reporter cells, 0.5 ng/ml IL-1a, Abs. 620 nM)” value in the experiment with human IL1RAP [2] turned out to be 0.18 nM. Also, in the experiment with human IL1RAP [3], the “EC50 (inhibition of IL-33 signalling, HEK-Blue IL-33 reporter cells, 0.5 ng/ml IL-33, Abs. 620 nm; partial, lower plateau about 0.4)” value turned out to be 0.44 nM.

B4: 5G8_18A1 (antibody, V domains shown)
VH: QVELQESGPGLVKPSDTLSLTCTVTGGSISTYYWSWIRQPPGKGLEWIGYIFYTGTTNYNPSLKSRVTISVDASKNQFSLKLNSVTAADTAVYYCARDGSLDYWGQGALVTVSS
VL: DIQMTQSPSSLSASVGDRVTITCRASQSISNYLNWYQQKPGKAPKLLIFVASLLQSGVPSRFSGSGSGTDFTLTISSLQPEDFATYYCQQSYSTPFTFGPGTKLEIK
In the case of B4, the “EC50 (inhibition of IL-1beta signalling, HEK-Blue IL-1beta reporter cells, 0.5 ng/ml IL-1beta, Abs. 620 nM)” value in the experiment with human IL1RAP [1] was 0.58 nM. In addition, the “EC50 (inhibition of IL-1alpha signalling, HEK-Blue IL-1beta reporter cells, 0.5 ng/ml IL-1a, Abs. 620 nM)” value in the experiment with human IL1RAP [2] was determined as 0.83 nM.

B5: 16H2_17D2 (antibody, V domains shown)
VH: QVQLVESGGGVVQPGGSLRLSCAASGFTFSSHGMHWVRQAPGKGLEWVAVIWYDGSNKFYTDSVQGRFTISRDNSKNTLNLQMNSLRAEDTAVYYCAREGLRAGYYFDFWGQGTLVTVSS
VL: DIQMTQSPSSLSASVGDRVTITCRASQRISFYSNWYQQKPGKAPKLLIYAASSLQSGVPSRFSGSGSGTDFTLTISSLQPEDFATYFCQQSHSTPLTFGGGTKLEIK
For the molecule B5, in the experiment with human IL1RAP [1], the “EC50 (inhibition of IL-1beta signalling, HEK-Blue IL-1beta reporter cells, 0.5 ng/ml IL-1beta, Abs. 620 nM)” value amounted to 0.1 nM. In the experiment with human IL1RAP [2], the “EC50 (inhibition of IL-1alpha signalling, HEK-Blue IL-1beta reporter cells, 0.5 ng/ml IL-1a, Abs. 620 nM)” value was 0.09 nM.
